Laboratory results: patent US20090118184A1 (UNIVERSITY OF ROCHESTER, published 2009)
Substitutions are numbered along the chain they refer to. Numbers in names are those of the source.

T1: factor VIIIa A1/A3C1C2 dimer, wild type (human, UniProt P00451 20-391; P00451 1709-2351)
T1 sequence 1: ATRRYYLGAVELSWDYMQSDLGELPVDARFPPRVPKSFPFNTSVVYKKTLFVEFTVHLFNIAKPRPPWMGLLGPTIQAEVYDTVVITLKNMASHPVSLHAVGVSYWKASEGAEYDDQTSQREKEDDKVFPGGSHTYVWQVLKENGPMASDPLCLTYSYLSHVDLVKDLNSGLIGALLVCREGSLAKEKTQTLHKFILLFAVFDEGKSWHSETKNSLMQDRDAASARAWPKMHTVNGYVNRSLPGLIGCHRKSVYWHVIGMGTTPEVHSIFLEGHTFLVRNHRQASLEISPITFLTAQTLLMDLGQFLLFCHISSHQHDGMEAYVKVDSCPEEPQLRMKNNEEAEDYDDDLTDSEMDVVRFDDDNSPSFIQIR
T1 sequence 2: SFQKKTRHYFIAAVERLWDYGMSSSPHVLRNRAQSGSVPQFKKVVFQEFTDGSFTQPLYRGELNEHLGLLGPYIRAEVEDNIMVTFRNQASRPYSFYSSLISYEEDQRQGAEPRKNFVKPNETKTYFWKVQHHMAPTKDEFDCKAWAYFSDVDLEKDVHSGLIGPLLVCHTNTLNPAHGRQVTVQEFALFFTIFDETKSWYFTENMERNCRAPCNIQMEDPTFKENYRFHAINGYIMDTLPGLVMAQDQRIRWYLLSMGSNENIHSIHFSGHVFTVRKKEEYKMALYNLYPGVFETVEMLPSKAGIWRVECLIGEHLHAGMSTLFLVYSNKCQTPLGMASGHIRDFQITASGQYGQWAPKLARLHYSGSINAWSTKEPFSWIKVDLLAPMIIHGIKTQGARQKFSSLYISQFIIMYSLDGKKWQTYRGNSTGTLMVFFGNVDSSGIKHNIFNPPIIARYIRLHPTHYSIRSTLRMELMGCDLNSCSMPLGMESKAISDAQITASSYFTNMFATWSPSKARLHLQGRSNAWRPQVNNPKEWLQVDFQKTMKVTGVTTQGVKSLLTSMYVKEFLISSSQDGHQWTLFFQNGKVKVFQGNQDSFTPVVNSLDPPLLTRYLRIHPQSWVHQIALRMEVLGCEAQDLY

T2: factor VIIIa A1/A3C1C2 dimer, Glu113Ala (human, UniProt P00451 20-391; P00451 1709-2351)
T2 chain 1: T1 sequence 1 with E113A
T2 chain 2: T1 sequence 2

T3: factor VIIIa A1/A3C1C2 dimer, Glu1984Val (human, UniProt P00451 20-391; P00451 1709-2351)
T3 sequence 1: T1 sequence 1
T3 sequence 2: T1 sequence 2 with E295V

T4: factor VIIIa A1/A3C1C2 dimer, Glu1984Ala (human, UniProt P00451 20-391; P00451 1709-2351)
T4 sequence 1: T1 sequence 1
T4 sequence 2: T1 sequence 2 with E295A

B1: factor VIIIa A2 subunit, S654A (other)
chain: SVAKKHPKTWVHYIAAEEEDWDYAPLVLAPDDRSYKSQYLNNGPQRIGRKYKKVRFMAYTDETFKTREAIQHESGILGPLLYGEVGDTLLIIFKNQASRPYNIYPHGITDVRPLYSRRLPKGVKHLKDFPILPGEIFKYKWTVTVEDGPTKSDPRCLTRYYSSFVNMERDLASGLIGPLLICYKESVDQRGNQIMSDKRNVILFSVFDENRSWYLTENIQRFLPNPAGVQLEDPEFQASNIMHSINGYVFDSLQLSVCLHEVAYWYILSIGAQTDFLSVFFAGYTFKHKMVYEDTLTLFPFSGETVFMSMENPGLWILGCHNSDFRNRGMTALLKVSSCDKNTGDYYEDSYEDISAYLLSKNNAIEPR
B2: factor VIIIa A2 subunit, Y476F (other)
chain: B1 chain with Y104F, A282S
B3: factor VIIIa A2 subunit, S695A (other)
chain: B1 chain with A282S, S323A
B4: factor VIIIa A2 subunit, D696A (other)
chain: B1 chain with A282S, D324A
B5: factor VIIIa A2 subunit, N538A (other)
chain: B1 chain with N166A, A282S
B6: factor VIIIa A2 subunit, E540A (other)
chain: B1 chain with E168A, A282S
B7: factor VIIIa A2 subunit, E683A (other)
chain: B1 chain with A282S, E311A
B8: factor VIIIa A2 subunit, T522A (other)
chain: B1 chain with T150A, A282S
B9: factor VIIIa A2 subunit, D666A (other)
chain: B1 chain with A282S, D294A
B10: factor VIIIa A2 subunit, Glu665Val (other)
chain: B1 chain with A282S, E293V
B11: factor VIIIa A2 subunit, D519V and E665V (other)
chain: B1 chain with D147V, A282S, E293V
B12: factor VIIIa A2 subunit, D519A and E665V (other)
chain: B1 chain with D147A, A282S, E293V
B13: factor VIIIa A2 subunit, D519A and E665A (other)
chain: B1 chain with D147A, A282S, E293A

Target: T1, factor VIIIa A1/A3C1C2 dimer, wild type
Assay: cell-based or functional assay

Row | Binder | Factor VIIIa decay rate relative to wild type, FIXa (+) | Factor VIIIa decay rate, FIXa (+) [min⁻¹]
1 | B1 | 1.28 relative to wild type | 0.0145
2 | B2 | 1.23 relative to wild type | 0.0139
3 | B3 | 0.75 relative to wild type | 0.0085
4 | B4 | 1.05 relative to wild type | 0.0118
5 | B5 | 1.28 relative to wild type | 0.0144
6 | B6 | 0.81 relative to wild type | 0.0091
7 | B7 | 2.33 relative to wild type | 0.0263
8 | B8 | 2.39 relative to wild type | 0.027
9 | B9 | 4.83 relative to wild type | 0.0545

Target: T1, factor VIIIa A1/A3C1C2 dimer, wild type
Assay: cell-based or functional assay
Remark: another data set of the same source

Row | Binder | Factor VIIIa Decay relative to the WT value, Factor IXa absent | Factor VIIIa Decay relative to the WT value, Factor IXa present | Factor VIIIa Decay, Factor IXa absent [min⁻¹] | Factor VIIIa Decay, Factor IXa present [min⁻¹]
10 | B10 | 0.19 relative to WT | 0.34 relative to WT | 0.016 | 0.0052

Target: T2, factor VIIIa A1/A3C1C2 dimer, Glu113Ala
Assay: cell-based or functional assay

Row | Binder | Decay rate relative to wild type, Factor VIIIa (1.5 nM, factor IXa absent) | Decay rate, Factor VIIIa (1.5 nM factor VIIIa, factor IXa absent) [min⁻¹]
11 | B10 | 0.24 relative to wild type | 0.0333

Target: T3, factor VIIIa A1/A3C1C2 dimer, Glu1984Val
Assay: cell-based or functional assay

Row | Binder | Decay rate relative to wild type, Factor VIIIa (1.5 nM, factor IXa absent) | Decay rate, Factor VIIIa (1.5 nM factor VIIIa, factor IXa absent) [min⁻¹]
12 | B10 | 0.48 relative to wild type | 0.0671
13 | B11 | 0.16 relative to wild type | 0.0227

Target: T4, factor VIIIa A1/A3C1C2 dimer, Glu1984Ala
Assay: cell-based or functional assay

Row | Binder | Decay rate relative to wild type, Factor VIIIa (1.5 nM, factor IXa absent) | Decay rate, Factor VIIIa (1.5 nM factor VIIIa, factor IXa absent) [min⁻¹]
14 | B10 | 0.26 relative to wild type | 0.036
15 | B11 | 0.1 relative to wild type | 0.0142
16 | B12 | 0.17 relative to wild type | 0.0235

Target: T1, factor VIIIa A1/A3C1C2 dimer, wild type
Assay: cell-based or functional assay
Remark: another data set of the same source

Row | Binder | Decay rate relative to wild type, Factor VIIIa (1.5 nM, factor IXa absent) | Decay rate, Factor VIIIa (1.5 nM factor VIIIa, factor IXa absent) [min⁻¹]
17 | B10 | 0.28 relative to wild type | 0.0395
18 | B13 | 0.25 relative to wild type | 0.0352
19 | B11 | 0.14 relative to wild type | 0.0198
20 | B12 | 0.16 relative to wild type | 0.0222
